Source: PMC3215728
One block for each substance: values may come before it.

Key:
[1] = target: CFP-dysferlin / YFP-dysferlin (full-length human dysferlin) expressed in HEK293 cells (human) (UniProt O75923); assay: FRET or BRET; three-cube fluorescence microscopy (E-FRET), pixel by pixel, CFP-dysferlin and YFP-dysferlin in living HEK293 cells; conditions: remark: other sources report otherwise
[2] = target: CFP-dysferlin / YFP-dysferlin (full-length human dysferlin) expressed in HEK293 cells (human) (UniProt O75923); assay: fluorescence correlation spectroscopy (FCS); YFP-dysferlin diffusing in detergent solution, Triton X-100; 2-species fit; conditions: remark: other sources report otherwise
[3] = target: CFP-dysferlin / YFP-dysferlin (full-length human dysferlin) expressed in HEK293 cells (human) (UniProt O75923); assay: fluorescence correlation spectroscopy (FCS); YFP-dysferlin diffusing in detergent solution, 1% CHAPS or 0.5% DDM; single species diffusion model; conditions: remark: other sources report otherwise
[4] = target: CFP-dysferlin / YFP-dysferlin (full-length human dysferlin) expressed in HEK293 cells (human) (UniProt O75923); assay: photon counting histogram (PCH); detergent solubilized YFP-dysferlin in CHAPS or DDM; molecular brightness normalised to monomeric YFP; conditions: remark: other sources report otherwise
[5] = target: CFP-dysferlin / YFP-dysferlin (full-length human dysferlin) expressed in HEK293 cells (human) (UniProt O75923); assay: FRET or BRET; acceptor-selective photobleaching FRET between CFP- and YFP-tagged copies in living HEK293 cells; linearity of donor against acceptor for stoichiometry; hyperbolic fit of FRET against YFP intensity gives FRETmax and KD in arbitrary units; conditions: remark: other sources report otherwise
[6] = target: CFP-dysferlin / YFP-dysferlin (full-length human dysferlin) expressed in mouse FDB muscle fibers (human) (UniProt O75923); assay: FRET or BRET; acceptor-selective photobleaching FRET between CFP-dysferlin and YFP-dysferlin in living FDB muscle fibers isolated from electroporated dysferlin-deficient mice; conditions: remark: other sources report otherwise
[7] = target: Endogenous dysferlin from rabbit skeletal muscle (rabbit (endogenous in skeletal muscle)); assay: cross-linking; rabbit skeletal muscle microsomes with or without 100 µM o-PDM on ice for 30 min; SDS-PAGE and western blot
[8] = target: His6-tagged dysferlin (human) (UniProt O75923); assay: SEC; Superose 6 HR 10/30 FPLC; mobile phase 1% CHAPS, 150 mM NaCl, 50 mM Tris pH 7.5, 0.4 ml/min; fractions blotted with Hamlet antibody; monomer to dimer; conditions: remark: other sources report otherwise

FRET efficiency [1]: 20.6%
percent of molecules diffusing as the slower (dimer) species [2]: 17%
stoichiometry N [3]: 2
stoichiometry N [4]: 2
FRETmax [5]: 26.8%
stoichiometry N [5]: 2
Substance: CFP-dysferlin / YFP-dysferlin (full-length human dysferlin) expressed in HEK293 cells, O75923 1-2080

FRETmax [6]: 33.3%
stoichiometry N [6]: 2
Substance: CFP-dysferlin / YFP-dysferlin (full-length human dysferlin) expressed in mouse FDB muscle fibers, O75923 1-2080

stoichiometry N [7]: 2
Substance: Endogenous dysferlin from rabbit skeletal muscle (natural protein)

stoichiometry N [8]: 2
Substance: His6-tagged dysferlin, O75923 1-2080
